Results as given in patent US20260008852A1.
Each block holds one binder with its values, some of them ahead of it.

Key:
[1] = biological target: His-tagged human B7-H3 (human) (UniProt Q5ZPR3); experiment: ELISA OD450 on hu B7-H3 over OD450 on mu B7-H3
[2] = biological target: His-tagged mouse B7-H3 (mouse) (UniProt Q8VE98); experiment: ELISA, coated His-tagged antigen, scFv-Fc 1 ug/ml
[3] = biological target: His-tagged human B7-H3 (human) (UniProt Q5ZPR3); experiment: ELISA, coated His-tagged antigen, scFv-Fc 1 ug/ml

Sequence of His-tagged human B7-H3 (human) (Q5ZPR3 other isoform, or with tags, fused parts or gaps limits assumed): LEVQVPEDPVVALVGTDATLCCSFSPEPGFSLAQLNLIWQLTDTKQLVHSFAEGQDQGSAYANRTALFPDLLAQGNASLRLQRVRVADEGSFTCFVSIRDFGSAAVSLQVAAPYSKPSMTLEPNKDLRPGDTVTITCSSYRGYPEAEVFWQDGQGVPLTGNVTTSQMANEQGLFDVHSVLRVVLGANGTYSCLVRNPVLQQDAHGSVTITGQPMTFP
Sequence of His-tagged mouse B7-H3 (mouse) (Q8VE98 29-244 limits assumed): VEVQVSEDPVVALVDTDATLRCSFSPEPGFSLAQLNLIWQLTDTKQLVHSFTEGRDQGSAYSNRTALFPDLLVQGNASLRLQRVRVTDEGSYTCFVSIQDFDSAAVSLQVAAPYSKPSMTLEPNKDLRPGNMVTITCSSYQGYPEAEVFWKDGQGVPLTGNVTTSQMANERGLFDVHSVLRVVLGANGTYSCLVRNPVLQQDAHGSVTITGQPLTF

- hu:mu ratio [1]: 1.09
- ELISA OD450 @ 1 ug/ml [2]: 0.045 OD450
- ELISA OD450 @ 1 ug/ml [3]: 0.049 OD450
B1: 40633p1.2.C11 (scFv, V domains shown)
VH: EVQLLESGGGLVQPGGSLRLSCAASGFTFSSYWMSWVRQAPGKGLEWVAGINRNGGSTYYADSVKGRFTISRDNSENTLYLQVNSLRAEDTAVYYCARWNDYDIMDVWGQGTTVTVSS
VL: QSVLTQPSSASGTPGQRVTISCSGSSSNVGRRAVNWYQQLPGTAPKLLISNSQRPSGVPDRFSGSKSGTSASLAISGLQSEDEADYYCATWDASLNSWVFGGGTKLTVL

- hu:mu ratio [1]: 1.51
- ELISA OD450 @ 1 ug/ml [3]: 0.077 OD450
B2: 40579p1.H11 (scFv, V domains shown)
VH: EVQLLESGGGLVQPGGSLRLSCAASGFTFDDYGMSWVRQAPGKGLEWVSAIRSKASSYATYYADSVKGRFTVSRDNSENTLYLQMNSLRAEDTAVYYCAKHRSNYYFMDVWGQGTTVTVSS
VL: EIVLTQSPGTLSLSPGERATLSCRASQSVGSDLAWYQQRPGQAPRLLIYAASSRATDIPDRFSGSGSGTDFTLTISSLQSEDFAVYYCQQYYSWPPLTFGGGTKVEIK
